Where “and” joins values, the source holds several entries; their conditions need not be identical. Identical values can stand only once.
Legend:
[1] = test system: P02787; test: SAXS; concentration series at pH 4.0-8.0 and with NaCl or arginine at pH 5.0/6.5; estimated MW from scattering; volume fractions from OLIGOMER with monomer crystal structures and a SASREFMX dimer model; conditions: other: SAXS
[2] = biological target: Recombinant human transferrin (human) (UniProt P02787); test: SEC-MALS; Superdex 200 Increase 10/30 GL, 4 °C, mobile phase 38 mM NaH2PO4, 12 mM Na2HPO4, 150 mM NaCl, 200 ppm NaN3, pH 7.4; samples from all tested formulation conditions

Recombinant human transferrin, sequence (P02787 20-698): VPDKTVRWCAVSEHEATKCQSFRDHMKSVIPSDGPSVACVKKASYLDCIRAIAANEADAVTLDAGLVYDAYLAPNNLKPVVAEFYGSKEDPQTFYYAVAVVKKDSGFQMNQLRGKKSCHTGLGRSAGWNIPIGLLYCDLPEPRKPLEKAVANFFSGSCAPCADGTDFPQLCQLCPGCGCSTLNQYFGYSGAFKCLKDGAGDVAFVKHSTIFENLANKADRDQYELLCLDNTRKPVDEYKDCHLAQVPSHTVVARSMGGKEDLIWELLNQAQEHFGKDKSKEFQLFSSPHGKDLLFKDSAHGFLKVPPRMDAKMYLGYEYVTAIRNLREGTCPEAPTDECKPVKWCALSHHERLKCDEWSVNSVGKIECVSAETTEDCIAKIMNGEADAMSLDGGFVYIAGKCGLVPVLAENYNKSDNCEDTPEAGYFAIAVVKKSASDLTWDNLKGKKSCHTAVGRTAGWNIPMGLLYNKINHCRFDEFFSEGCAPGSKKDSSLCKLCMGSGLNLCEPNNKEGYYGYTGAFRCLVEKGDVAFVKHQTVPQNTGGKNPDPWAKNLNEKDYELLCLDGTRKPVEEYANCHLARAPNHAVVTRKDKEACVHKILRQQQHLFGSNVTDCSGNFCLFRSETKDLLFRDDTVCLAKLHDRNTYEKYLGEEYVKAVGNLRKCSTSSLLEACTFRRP

Recombinant human transferrin was tested, and the volume fraction of dimer + aggregates (NaCl) [1] was 0.5, the volume fraction of dimer + aggregates (acetate) [1] was 0.2 and the volume fraction of dimer + aggregates (arginine) [1] was 0.4. The volume fraction of dimer + aggregates (histidine) [1] was 0.2.
“Recombinant human transferrin (from UniProt P02787 20-698) (natural protein)” was tested, and the percent dimer [2] was 12%, the percent trimer [2] was 2% and the stoichiometry N [2] was 2 and 3.

Source: article PMC7337065
